Laboratory results from article PMC6607583.

Key:
[1] = target: HIV-1 NL4-3 Nef-FTS Mut1 (WL-EEEE to AA-AAAA) (HIV-1 (NL4-3 strain)) (UniProt P03406); test: pull-down; HeLa cells transiently transfected with FTS-tagged bait, cross-linked with 1 mM DSP (4 °C, 6 h), lysed in 50 mM Tris-HCl pH 7.4, 300 mM NaCl, 5 mM EDTA, 0.5% NP-40; bait isolated on Strep-Tactin resin overnight at 4 °C; endogenous prey detected by immunoblotting
[2] = target: HIV-1 NL4-3 Nef-FTS Mut2 (EEEE-PxxP to AAAA-AxxA) (HIV-1 (NL4-3 strain)) (UniProt P03406); test: as above

## autophagy-related 9A (ATG9A) protein, endogenous in HeLa (from UniProt Q7Z3C6 1-839) (natural protein)
[1]
  Nef-ATG9A pulldown relative to WT Nef: 10 % of WT Nef
[2]
  Nef-ATG9A pulldown relative to WT Nef: 10 % of WT Nef
